The source of these data is PMC2894018 (2010).

Sequences and labels used below:
B1: HIV-1 Vpr from NL43 (Vpr^wt) fused to the N- or C-terminal fragment of Venus [HIV-1 (NL43)] / itself (parent complex)
chain: MEQAPEDQGPQREPYNEWTLELLEELKSEAVRHFPRIWLHNLGQHIYETYGDTWAGVEAIIRILQQLLFIHFRIGCRHSRIGVTRQRRARNGASRS

This experiment covers variants of B1. In words: BiFC (bimolecular fluorescence complementation), flow cytometry on cells; cells cotransfected with VC and VN fusions of the same Vpr mutant; vector control 0.1; parent: 35.7.
chain 1 H71R: the response amounted to 1.65 % BiFC positive cells.
As for chain 1 A30L, the figure is 1.19 % BiFC positive cells; as for chain 1 L68E, 1.03 % BiFC positive cells.
